Laboratory results: patent US12527821B2, “Compositions and methods related to tumor cell killers and vaccines” (THE BRIGHAM AND WOMEN'S HOSPITAL, INC., priority 2018, dated 2026)

B1: TNF-related apoptosis-inducing ligand (protein, listed as Homo sapiens)
chain: MAMMEVQGGPSLGQTCVLIVIFTVLLQSLCVAVTYVYFTNELKQMQDKYSKSGIACFLKEDDSYWDPNDEESMNSPCWQVKWQLRQLVRKMILRTSEETISTVQEKQQNISPLVRERGPQRVAAHITGTRGRSNTLSSPNSKNEKALGRKINSWESSRSGHSFLSNLHLRNGELVIHEKGFYYIYSQTYFRFQEEIKENTKNDKQMVQYIYKYTSYPDPILLMKSARNSCWSKDAEYGLYSIYQGGIFELKENDRIFVSVTNEHLIDMDHEASFFGAFLVG
notes: death receptor (DR4/5) ligand used to treat cancer cell lines

What was measured:
[1] = tested on: 293 Ts engineered with LV-IFNβ/zeo-HSV/TK; test: Cell viability after GCV treatment; assay type: cell-based
[2] = tested on: rGBMnDR4/5-ST-TK-GF1; test: Intracranial implantation of sECM-encapsulated rGBMnDR4/5-ST-TK-GF1 in SCID mice, growth and GCV clearance (BLI); assay type: in vivo
From the text: (1) Nodular recurrent GBM resection model: Local retention of therapeutic cells can be achieved by encapsulation of therapeutic cells into biodegradable synthetic extracellular matrix (sECM) before implantation into the resection cavity (16).

[3] = tested on: CT2a-GMCSF-mIFNaR1KO engineered with LV-IFNβ/zeo-HSV/TK; test: Cell viability after GCV treatment; assay type: cell-based, mouse
From the text: FIG. 2A details the concept to test if CT2a-IFNaR1-KO can be engineered with LV-IFNβ/zeo-HSV/TK.

[4] = tested on: rGBMi2-TK cells; test: GCV-induced clearance of HSV-TK engineered rGBM in vitro (cell viability); assay type: cell-based, human; conditions: in comparison to controls
Procedure: Cell viability and caspase assays: Tumor cells were plated in 96-well plates and treated with different doses of S-TRAIL for 24 hours and different doses of GCV for up to 96 hours. Cell viability was measured using an ATP-dependent luminescent reagent (CellTiter Glo, Promega) for non-Fluc expressing cells, or with luciferin or coelenterazine for Fluc- and Rluc-expressing cells, respectively. Caspase activity was determined using a DEVD-aminoluciferin assay (Caspase-3/7 Glo, Promega) according to the manufacturer's instructions. Experiments were performed in triplicate.

[5] = tested on: rGBMnDR4/5-ST-TK; test: GCV titration of DR4/5 knockout line with HSV-TK in vitro; assay type: cell-based, human; conditions: as opposed to non-TK control lines
Procedure: (§1) Thus, should tumors acquire a DRL-resistant phenotype during adjuvant clinical therapy and tumor recurrence, TK-induced bystander effect of therapeutic self-cells might still provide robust treatment efficacy.
(§2) Lentiviral transductions and engineering of stable cell lines: Lentiviral packaging was performed by transfection of 293T cells as previously described (73), and cells were transduced with lentiviral vectors at M.O.I of 2 in medium containing protamine sulfate (2 μg/ml). For bioluminescence imaging, cancer cells were transduced with LV-Pico2-Fluc-mCherry, LV-Pico2-Rluc-mCherry, or LV-Pico2-Fluc-GFP and selected by FACS using a BD FACSAriaTM Fusion cell sorter or puromycin selection (1 μg/ml) in culture. GFP or mCherry expression was visualized by fluorescence microscopy. […] Cell viability was measured using an ATP-dependent luminescent reagent (CellTiter Glo, Promega) for non-Fluc expressing cells, or with luciferin or coelenterazine for Fluc- and Rluc-expressing cells, respectively. Caspase activity was determined using a DEVD-aminoluciferin assay (Caspase-3/7 Glo, Promega) according to the manufacturer's instructions. Experiments were performed in triplicate. […]

[6] = tested on: rGBMiDR4/5-ST-TK; test: as above; assay type: cell-based, human; conditions: as opposed to non-TK control lines
Procedure: as §1, §2

[7] = tested on: rGBMi2-ST-TK; test: 18F-FHBG PET imaging of GCV-induced cell clearance; assay type: in vivo, mice; conditions: after 10 days of daily GCV treatment
Procedure: PET imaging: Mice implanted intracranially with rGBMi2-TK-GF1 were fasted for 4 hours before imaging, anesthetized with 2% isoflurane and 100% oxygen, and injected with 500 μCi of 18F-FHBG via the tail vein. Two hours later, a static dataset was acquired for 60 minutes in 1 bed position (FOV 4.2 cm) using an energy window of 250-700 keV for each mouse. Images were reconstructed using a 2D OSEM algorithm with 2 iterations and 16 subsets. For measuring the mean and maximum standardized uptake values (SUVmean and SUVmax) and metabolic tumor volume (MTV), three-dimensional (3D) regions of interest were drawn over the mouse brain, and uptake values were measured using the explore Vista software (GE Healthcare). The maximum intensity projection images were generated using ImageJ. After the baseline PET scan at day 0, mice were treated daily with GCV (10 mg/kg) and imaged again by PET at day 10 after GCV treatment.

[8] = tested on: GBM46 (rGBMi3); test: TRAIL sensitivity screen/titration (cell viability); assay type: cell-based, human
From the text: (§3) To investigate the therapeutic efficacy of receptor-targeted molecules, the Inventors tested a panel of different cancer cell lines for their susceptibility to treatment with cell surface receptor ligands/antagonists targeting CD36 (thrombospondin-1, TSP), epidermal growth factor receptor (EGFR) (EGFR-blocking nanobody, Nb), heterodimeric interleukin 20 receptor (IL20R) comprised of subunits α and β (interleukin 24, IL24), and DRs (TRAIL) (FIG. 6 C). A nodular (n) and an invasive (i) GBM cell line (Gli36Δ-EGFR and GBM8, respectively) were screened and found to be DR ligand (DRL)-sensitive(s) (herein referred to as sGBMn and sGBMi). The following non-GBM cancer lines were also identified as DRL-sensitive: PC3 (sPCm), Jurkat (sTCL), HCT116 (sCC), and MDA231-BrM2a (sBCm). […] In addition to the above DRL-sensitive(s) cell lines, three DRL-resistant (r) GBM cell lines were identified (GBM23, GBM64, GBM46, herein referred to as rGBMi1, rGBMi2, rGBMi3) (FIG. 6D). Based on these findings, DR4 and DR5 were chosen as the most suitable candidates to further investigate the therapeutic potential of receptor self-targeted therapies.
(§4) Lentiviral transductions and engineering of stable cell lines: Lentiviral packaging was performed by transfection of 293T cells as previously described (73), and cells were transduced with lentiviral vectors at M.O.I of 2 in medium containing protamine sulfate (2 μg/ml). For bioluminescence imaging, cancer cells were transduced with LV-Pico2-Fluc-mCherry, LV-Pico2-Rluc-mCherry, or LV-Pico2-Fluc-GFP and selected by FACS using a BD FACSAriaTM Fusion cell sorter or puromycin selection (1 μg/ml) in culture. GFP or mCherry expression was visualized by fluorescence microscopy. […] Cell viability was measured using an ATP-dependent luminescent reagent (CellTiter Glo, Promega) for non-Fluc expressing cells, or with luciferin or coelenterazine for Fluc- and Rluc-expressing cells, respectively. Caspase activity was determined using a DEVD-aminoluciferin assay (Caspase-3/7 Glo, Promega) according to the manufacturer's instructions. Experiments were performed in triplicate. For treatments with conditioned medium, plasmid vectors coding for secretable expression of CD36-targeting ligand 3TSR (a functional thrombospondin-1, TSP-1 analog) (09), EGFR-blocking ligand NB (12), IL-20Rα/β-targeting ligand IL-24 (69), and DR ligand S-TRAIL (69) were transfected into 293T cells. Medium was changed the next day, collected 40 hours after transfection, and frozen at −80° C. until further use.

[9] = tested on: Jurkat (sTCL); test: as above; assay type: cell-based, human
From the text: as §3, §4

[10] = tested on: GBM23 (rGBMi1); test: as above; assay type: cell-based, human
From the text: as §3, §4

[11] = tested on: PC3 (sPCm); test: as above; assay type: cell-based, human
From the text: as §3, §4

[12] = tested on: MDA231-BrM2a (sBCm); test: as above; assay type: cell-based, human
From the text: as §3, §4

[13] = tested on: Gli36Δ-EGFR (sGBMn); test: as above; assay type: cell-based, human; conditions: nodular GBM cell line
From the text: as §3, §4

[14] = tested on: GBM64 (rGBMi2); test: as above; assay type: cell-based, human
From the text: as §3, §4

[15] = tested on: GBM8 (sGBMi); test: as above; assay type: cell-based, human; conditions: invasive GBM cell line
From the text: as §3, §4

[16] = tested on: HCT116 (sCC); test: as above; assay type: cell-based, human
From the text: as §3, §4

[17] = tested on: panel of different cancer cell lines; test: Screen of receptor-targeted ligands/antagonists on a panel of cancer cell lines; assay type: cell-based, human; conditions: 72 hours after treatment; versus TSP, Nb, IL24
From the text: To investigate the therapeutic efficacy of receptor-targeted molecules, the Inventors tested a panel of different cancer cell lines for their susceptibility to treatment with cell surface receptor ligands/antagonists targeting CD36 (thrombospondin-1, TSP), epidermal growth factor receptor (EGFR) (EGFR-blocking nanobody, Nb), heterodimeric interleukin 20 receptor (IL20R) comprised of subunits α and β (interleukin 24, IL24), and DRs (TRAIL) (FIG. 6 C). A nodular (n) and an invasive (i) GBM cell line (Gli36Δ-EGFR and GBM8, respectively) were screened and found to be DR ligand (DRL)-sensitive(s) (herein referred to as sGBMn and sGBMi). […]
as §2, with “For bioluminescence imaging, cancer cells were transduced with LV-Pico2-Fluc-mCherry, LV-Pico2-Rluc-mCherry, or LV-Pico2-Fluc-GFP and selected by FACS using a BD FACSAriaTM Fusion cell sorter or puromycin selection (1 μg/ml) in culture.” left out, “instructions.” for “instructions. Experiments were performed in triplicate.”

Molecule | cell-viability after GCV-treatment [1] | time to drop of BLI signal back to baseline ([2]; after initiation of GCV therapy) [days] | GCV-induced (HSV-TK mediated) cell clearance ([2]; mouse, in vivo) | cell-viability after GCV-treatment [3] | elimination of rGBMi2-TK cells [4] | cell elimination by GCV [5] | cell elimination by GCV [6] | tumor-specific PET signal intracranially [7] | susceptibility to DR ligand (DRL) [8] | susceptibility to DR ligand (DRL) [9] | susceptibility to DR ligand (DRL) [10] | susceptibility to DR ligand (DRL) [11] | susceptibility to DR ligand (DRL) [12] | susceptibility to DR ligand (DRL) [13] | susceptibility to DR ligand (DRL) [14] | susceptibility to DR ligand (DRL) [15] | susceptibility to DR ligand (DRL) [16] | efficacy in comparison to the other tested ligands [17]
Nc1nc2c(ncn2COC(CO)CO)c(=O)[nH]1 [GCV, Ganciclovir] | dose-dependent reduction of cell-viability | ≤ 9 | successful cell clearance | dose-dependent reduction of cell-viability | dose- and time-dependent elimination | dose-dependent cell elimination | dose-dependent cell elimination | no longer visible |  |  |  |  |  |  |  |  |  | 
B1 |  |  |  |  |  |  |  |  | DRL-resistant | DRL-sensitive | DRL-resistant | DRL-sensitive | DRL-sensitive | sensitive | DRL-resistant | sensitive | DRL-sensitive | most effective agent
